For the first assay, the target named is Human ornithine decarboxylase (human) (UniProt P11926).
Human ornithine decarboxylase (human), sequence (P11926 2-421): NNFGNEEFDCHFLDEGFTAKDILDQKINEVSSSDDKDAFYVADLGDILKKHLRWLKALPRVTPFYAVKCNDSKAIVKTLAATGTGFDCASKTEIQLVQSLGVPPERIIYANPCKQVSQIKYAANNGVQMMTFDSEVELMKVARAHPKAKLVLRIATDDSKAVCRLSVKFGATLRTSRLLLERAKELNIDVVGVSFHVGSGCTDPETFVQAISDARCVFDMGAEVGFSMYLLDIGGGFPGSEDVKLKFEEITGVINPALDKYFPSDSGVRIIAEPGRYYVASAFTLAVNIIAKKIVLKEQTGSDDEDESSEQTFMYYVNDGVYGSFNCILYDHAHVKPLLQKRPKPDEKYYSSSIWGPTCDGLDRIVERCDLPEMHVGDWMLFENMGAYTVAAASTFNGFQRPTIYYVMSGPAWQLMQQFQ
Test: not given
With AZ3_A98D (natural protein), the IC50 of inhibition of ODC enzyme activity by AZ amounted to 670 nM.

In the case of AZ3_D112K (natural protein), the IC50 of inhibition of ODC enzyme activity by AZ was found to be 550 nM. Same read-out and setting: for AZ3_D136G (natural protein) the value was 720 nM; for AZ3_D149P (natural protein), 2050 nM; for AZ3_D179N (natural protein), 450 nM. The same measure, in the same setting: under AZ3_G99D (natural protein) stands 780 nM; under AZ3_H129N (natural protein), 670 nM; under AZ3_K166Q (natural protein), 420 nM. The same measure, in the same setting: for AZ3_N100R (natural protein) the value was 660 nM; for AZ3_N168R (natural protein), 1380 nM. For AZ3_N175C (natural protein), the IC50 of inhibition of ODC enzyme activity by AZ was determined as 650 nM. The same measure, in the same setting: for AZ3_N178K (natural protein) the value was 670 nM; for AZ3_Q150E (natural protein), 480 nM.

As to AZ3_Q177H (natural protein), the IC50 of inhibition of ODC enzyme activity by AZ came out at 1340 nM.

As for AZ3_R137G (natural protein), the IC50 of inhibition of ODC enzyme activity by AZ was 1230 nM. Same read-out and setting: for AZ3_R138S (natural protein) the value was 810 nM. On the same count and under the same terms, for AZ3_S124D (natural protein) the value was 500 nM; for AZ3_S127R (natural protein), 1020 nM. Still for that read-out and setting: for AZ3_S171H (natural protein) the value was 430 nM; for AZ3_T106E (natural protein), 1210 nM. With AZ3_T126K (natural protein), the IC50 of inhibition of ODC enzyme activity by AZ came to 700 nM. In turn, AZ3_Y145G (natural protein) came in with an IC50 of inhibition of ODC enzyme activity by AZ of 980 nM.

Another assay shares this target.
Test: not given
This is another data set of the same source.
With “AZ3_S124D/Q150E/K166Q/D179N (natural protein)”, the IC50 of inhibition of ODC enzyme activity by AZ was 250 nM. Same read-out and setting: under “AZ3_S124D/Q150E/K166Q/S171H/D179N (natural protein)” stands 290 nM.

For a further assay the target is unchanged. Kind of assay: AUC; sedimentation velocity, 20 °C, 30 mM Tris-HCl pH 7.4, 25 mM NaCl; ODC fixed at 0.3 mg/mL, AZ 0.02-0.19 mg/mL (AZ/ODC molar ratio 0.25 to 3); all data sets fitted to the AB hetero-association model in SEDPHAT.
For the substance “AZ3_S124D/Q150E/K166Q/D179N (natural protein)”, the Kd is 500 nM. Same read-out and setting: for “AZ3_S124D/Q150E/K166Q/S171H/D179N (natural protein)” the value was 140 nM.

For orientation: Kd means the free concentration of one partner at which half of the binding sites on the other are occupied at equilibrium, for simple one-to-one binding.

The values above are taken from PMC6995573.
